{"source": "patent US20160319032A1", "about": "(MEDLMMUNE, published 2016)", "key": {"[1]": {"biological_target": "T1, human αVβ6 integrin on cells (human, UniProt P06756 31-1048; P18564 22-788)", "T1 sequence (P06756 31-1048, chain 1 of 2)": "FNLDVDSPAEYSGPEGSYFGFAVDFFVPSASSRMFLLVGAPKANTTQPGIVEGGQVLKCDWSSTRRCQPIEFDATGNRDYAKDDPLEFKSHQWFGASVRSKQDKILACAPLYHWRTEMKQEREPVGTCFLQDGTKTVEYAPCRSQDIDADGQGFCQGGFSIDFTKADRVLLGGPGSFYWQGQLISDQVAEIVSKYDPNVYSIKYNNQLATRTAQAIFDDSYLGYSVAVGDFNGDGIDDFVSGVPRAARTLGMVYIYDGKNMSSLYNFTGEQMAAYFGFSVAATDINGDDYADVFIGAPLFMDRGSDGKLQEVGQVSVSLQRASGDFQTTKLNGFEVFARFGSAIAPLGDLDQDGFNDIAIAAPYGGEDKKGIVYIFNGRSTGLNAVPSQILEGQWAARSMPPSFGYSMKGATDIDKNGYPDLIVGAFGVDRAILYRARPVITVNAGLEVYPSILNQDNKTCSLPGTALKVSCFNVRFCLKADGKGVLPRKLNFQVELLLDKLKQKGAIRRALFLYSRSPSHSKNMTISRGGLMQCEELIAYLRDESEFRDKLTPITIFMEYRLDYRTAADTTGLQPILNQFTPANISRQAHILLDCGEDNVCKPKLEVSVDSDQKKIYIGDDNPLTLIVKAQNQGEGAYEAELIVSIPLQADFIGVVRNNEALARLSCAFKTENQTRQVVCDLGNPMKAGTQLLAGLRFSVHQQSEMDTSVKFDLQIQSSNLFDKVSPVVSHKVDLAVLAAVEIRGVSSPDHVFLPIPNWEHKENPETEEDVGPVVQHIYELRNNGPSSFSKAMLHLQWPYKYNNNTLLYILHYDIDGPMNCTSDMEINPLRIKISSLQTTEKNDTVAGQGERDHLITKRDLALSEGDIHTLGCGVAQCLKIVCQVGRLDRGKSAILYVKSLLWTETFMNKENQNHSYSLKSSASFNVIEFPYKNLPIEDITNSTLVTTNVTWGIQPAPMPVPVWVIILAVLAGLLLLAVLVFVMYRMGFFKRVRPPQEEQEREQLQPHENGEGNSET", "T1 sequence (P18564 22-788, chain 2 of 2)": "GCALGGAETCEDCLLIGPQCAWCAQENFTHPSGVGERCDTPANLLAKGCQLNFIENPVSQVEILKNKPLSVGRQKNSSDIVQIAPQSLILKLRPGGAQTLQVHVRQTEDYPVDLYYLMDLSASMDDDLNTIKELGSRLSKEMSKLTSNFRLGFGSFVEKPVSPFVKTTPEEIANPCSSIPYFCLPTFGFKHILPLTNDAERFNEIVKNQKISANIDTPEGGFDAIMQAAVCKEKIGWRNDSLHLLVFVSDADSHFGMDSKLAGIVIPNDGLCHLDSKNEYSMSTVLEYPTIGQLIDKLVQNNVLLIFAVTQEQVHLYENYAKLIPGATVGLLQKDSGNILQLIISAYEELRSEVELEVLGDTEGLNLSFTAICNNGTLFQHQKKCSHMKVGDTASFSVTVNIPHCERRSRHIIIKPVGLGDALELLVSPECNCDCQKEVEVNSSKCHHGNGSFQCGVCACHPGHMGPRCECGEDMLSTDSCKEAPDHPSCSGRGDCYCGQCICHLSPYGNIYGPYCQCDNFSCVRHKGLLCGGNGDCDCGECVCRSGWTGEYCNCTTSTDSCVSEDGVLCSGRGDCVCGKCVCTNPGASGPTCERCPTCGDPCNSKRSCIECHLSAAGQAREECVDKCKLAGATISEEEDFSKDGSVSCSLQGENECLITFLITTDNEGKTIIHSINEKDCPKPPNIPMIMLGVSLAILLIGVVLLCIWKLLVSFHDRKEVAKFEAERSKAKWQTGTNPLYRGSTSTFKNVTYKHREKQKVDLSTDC", "assay": "cell-based or functional assay"}, "[2]": {"biological_target": "α5β1 integrin on K562 cells (UniProt P08648 42-1049; P05556 21-798)", "sequence (P08648 42-1049, chain 1 of 2)": "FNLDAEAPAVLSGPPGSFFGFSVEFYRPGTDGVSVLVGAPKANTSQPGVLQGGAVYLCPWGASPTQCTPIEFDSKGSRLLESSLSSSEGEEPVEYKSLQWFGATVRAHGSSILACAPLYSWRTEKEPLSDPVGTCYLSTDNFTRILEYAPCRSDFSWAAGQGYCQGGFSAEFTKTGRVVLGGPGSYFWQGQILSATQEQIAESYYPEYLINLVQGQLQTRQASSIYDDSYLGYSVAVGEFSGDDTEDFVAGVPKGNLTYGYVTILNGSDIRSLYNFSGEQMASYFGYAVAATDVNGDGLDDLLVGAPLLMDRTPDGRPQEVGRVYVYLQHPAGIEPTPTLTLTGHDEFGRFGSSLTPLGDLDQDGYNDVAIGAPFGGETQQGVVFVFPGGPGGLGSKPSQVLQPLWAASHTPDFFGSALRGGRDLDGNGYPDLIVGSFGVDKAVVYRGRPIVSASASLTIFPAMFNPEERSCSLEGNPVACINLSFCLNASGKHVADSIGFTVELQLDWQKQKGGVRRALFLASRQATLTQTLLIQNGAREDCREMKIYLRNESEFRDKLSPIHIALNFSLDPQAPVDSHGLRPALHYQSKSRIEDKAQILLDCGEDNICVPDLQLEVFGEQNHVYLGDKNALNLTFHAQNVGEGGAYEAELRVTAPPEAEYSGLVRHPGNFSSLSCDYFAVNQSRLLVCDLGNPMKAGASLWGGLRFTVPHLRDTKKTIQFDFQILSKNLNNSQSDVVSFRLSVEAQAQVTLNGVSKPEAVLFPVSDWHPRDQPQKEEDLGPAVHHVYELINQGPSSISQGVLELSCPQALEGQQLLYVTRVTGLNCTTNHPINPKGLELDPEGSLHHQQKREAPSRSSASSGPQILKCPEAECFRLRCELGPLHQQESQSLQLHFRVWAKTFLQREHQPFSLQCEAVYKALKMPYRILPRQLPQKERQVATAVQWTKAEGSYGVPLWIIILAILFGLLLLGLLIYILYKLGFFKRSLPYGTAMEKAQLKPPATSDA", "sequence (P05556 21-798, chain 2 of 2)": "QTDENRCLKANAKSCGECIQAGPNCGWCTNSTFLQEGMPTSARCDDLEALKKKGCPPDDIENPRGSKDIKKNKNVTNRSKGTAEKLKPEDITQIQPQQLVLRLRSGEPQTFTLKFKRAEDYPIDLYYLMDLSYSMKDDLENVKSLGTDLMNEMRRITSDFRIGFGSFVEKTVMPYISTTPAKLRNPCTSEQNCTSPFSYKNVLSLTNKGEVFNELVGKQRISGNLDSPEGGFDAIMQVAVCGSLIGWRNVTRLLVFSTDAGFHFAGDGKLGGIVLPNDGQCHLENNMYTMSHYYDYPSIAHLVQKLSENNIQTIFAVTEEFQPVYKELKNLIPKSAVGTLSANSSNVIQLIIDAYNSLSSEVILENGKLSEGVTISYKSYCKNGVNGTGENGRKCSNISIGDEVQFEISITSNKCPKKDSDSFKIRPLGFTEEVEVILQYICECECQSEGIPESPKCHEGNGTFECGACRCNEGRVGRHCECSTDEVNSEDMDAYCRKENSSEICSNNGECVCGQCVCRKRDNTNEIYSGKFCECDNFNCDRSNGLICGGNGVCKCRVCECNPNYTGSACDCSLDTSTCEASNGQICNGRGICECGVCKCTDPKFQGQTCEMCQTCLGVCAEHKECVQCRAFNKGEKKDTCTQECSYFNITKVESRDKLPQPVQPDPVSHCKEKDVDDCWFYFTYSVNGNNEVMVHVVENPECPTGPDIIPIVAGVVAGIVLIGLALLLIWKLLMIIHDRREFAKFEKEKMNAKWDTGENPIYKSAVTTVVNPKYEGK", "assay": "cell-based or functional assay"}, "[3]": {"biological_target": "human αV on parental A375M cells (αVβ3 and αVβ5 integrins) (human, UniProt P06756 31-1048)", "sequence (P06756 31-1048 A375M, form in doubt)": "as the sequence (P06756 31-1048, chain 1 of 2) above, with A345M counted along it", "assay": "cell-based or functional assay"}, "[4]": {"biological_target": "α4β1 integrin on J6.77 cells (UniProt P13612 34-1032; P05556 21-798)", "assay": "cell-based or functional assay"}, "[5]": {"biological_target": "T2, mouse αV on transfected HEK-293 cells (mouse, UniProt P43406 31-1044)", "T2 construct": "whole, on cells; Transfected alone into human HEK-293 cells; also called Mouse alpha V", "T2 sequence (P43406 31-1044)": "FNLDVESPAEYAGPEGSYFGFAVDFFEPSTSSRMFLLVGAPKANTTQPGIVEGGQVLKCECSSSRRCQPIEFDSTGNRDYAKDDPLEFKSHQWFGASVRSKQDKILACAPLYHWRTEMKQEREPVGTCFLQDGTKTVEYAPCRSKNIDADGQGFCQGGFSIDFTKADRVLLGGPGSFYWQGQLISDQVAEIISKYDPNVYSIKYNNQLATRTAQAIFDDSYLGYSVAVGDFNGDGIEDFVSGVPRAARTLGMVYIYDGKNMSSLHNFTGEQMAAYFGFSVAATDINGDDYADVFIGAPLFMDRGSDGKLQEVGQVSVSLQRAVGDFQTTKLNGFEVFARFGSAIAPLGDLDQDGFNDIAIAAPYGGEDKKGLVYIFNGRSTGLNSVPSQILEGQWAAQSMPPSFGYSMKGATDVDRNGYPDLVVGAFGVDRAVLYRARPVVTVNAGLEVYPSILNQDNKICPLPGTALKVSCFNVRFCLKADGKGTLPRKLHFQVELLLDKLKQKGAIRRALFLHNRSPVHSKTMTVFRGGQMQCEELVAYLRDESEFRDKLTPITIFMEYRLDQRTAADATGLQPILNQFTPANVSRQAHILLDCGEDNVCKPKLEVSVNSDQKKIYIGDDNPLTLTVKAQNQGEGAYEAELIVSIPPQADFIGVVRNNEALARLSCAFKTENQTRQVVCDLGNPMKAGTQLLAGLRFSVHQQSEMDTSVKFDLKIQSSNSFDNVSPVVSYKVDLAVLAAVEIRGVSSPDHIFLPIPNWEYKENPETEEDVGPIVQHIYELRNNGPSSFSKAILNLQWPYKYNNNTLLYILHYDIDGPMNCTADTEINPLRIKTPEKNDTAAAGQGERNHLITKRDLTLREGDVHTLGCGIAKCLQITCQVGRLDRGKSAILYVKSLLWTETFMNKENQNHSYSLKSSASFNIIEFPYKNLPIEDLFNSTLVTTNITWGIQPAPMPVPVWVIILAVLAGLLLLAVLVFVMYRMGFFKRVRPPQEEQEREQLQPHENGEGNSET", "assay": "FACS, purified mAb, transfected HEK-293 (parental: 49)"}, "[6]": {"biological_target": "T1, human αVβ6 integrin on cells", "assay": "cell-based or functional assay", "remark": "listed apart in the source"}, "[7]": {"biological_target": "T1, human αVβ6 integrin on cells", "assay": "FMAT, supernatant, HEK 293 cells stably overexpressing αVβ6"}, "[8]": {"biological_target": "T1, human αVβ6 integrin on cells", "assay": "cell-based or functional assay", "remark": "listed apart in the source"}}, "data": [{"binder": "sc 298 (antibody, V domains shown, lambda light chain) VH: QVQLVESGGGVVQPGRSLRLSCAASGFTFSSYGMHWVRQAPGKGLEWVAVIWYGGSNKYYADSVKGRFTISRDNSKNTLYLQMNSLRAEDTAVYYCARDLAARRGDYYYYGMDVWGQGTTVTVSS VL: SSELTQDPVVSVALGQTVRITCQGDSLRSYYLSWYQQKPGQAPVLVIYGKNNRPSGIPDRFSGSNSGNTASLTITGAQAEDEADYYCNSRDSSGNHLFGGGTKLTVL", "values": [{"measurement": "Assay 1 % Inhibition of adhesion", "setting": "[1]", "result": 98, "unit": "%"}, {"measurement": "Assay 2 % Inhibition of adhesion", "setting": "[1]", "result": 102, "unit": "%"}, {"measurement": "Average % Inhibition of adhesion", "setting": "[1]", "result": 100, "unit": "%"}, {"measurement": "Percent Inhibition of K562 adhesion to FN9-10, 5 ug/ml", "setting": "[2]", "result": 2, "unit": "%"}, {"measurement": "Percent Inhibition of A375M adhesion to osteopontin peptide, 5 ug/ml", "setting": "[3]", "result": 9, "unit": "%"}, {"measurement": "Percent Inhibition of J6.77 adhesion to CS-1 peptide, 5 ug/ml", "setting": "[4]", "result": -7, "unit": "%"}, {"measurement": "percent of cells shifted", "setting": "[5]", "result": 45, "unit": "%"}, {"measurement": "Percent Internalization, 1 ug/mL", "setting": "[6]", "result": 26, "unit": "%"}, {"measurement": "Percent Internalization, 10 ug/mL", "setting": "[6]", "result": 28, "unit": "%"}, {"measurement": "FMAT FL1XCount", "setting": "[7]", "result": 218000}, {"measurement": "Estimated IC50, adhesion assay, n = 1", "setting": "[8]", "result": 0.029, "unit": "µg/mL"}, {"measurement": "Estimated IC50, adhesion assay, n = 2", "setting": "[8]", "result": 0.025, "unit": "µg/mL"}, {"measurement": "Estimated IC50, adhesion assay, n = 3", "setting": "[8]", "result": 0.033, "unit": "µg/mL"}]}]}
